# Data published in article PMC6804253, “Predicting and Experimentally Validating Hot-Spot Residues at Protein–Protein Interfaces” (ACS Chemical Biology, 2019).
# Like-named read-outs stand apart in the source and are kept apart here.
# B1: 1DAN TU197A (protein, UniProt P13726 33-251, looked up, variant T197A)
# extracellular domain: SGTTNTVAAYNLTWKSTNFKTILEWEPKPVNQVYTVQISTKSGDWKSKCFYTTDTECDLTDEIVKDVKQTYLARVFSYPAGNVESTGSAGEPLYENSPEFTPYLETNLGQPTIQSFEQVGTKVNVTVEDERTLVRRNNTFLSLRDVFGKDLIYTLYYWKSSSSGKKTAKTNTNEFLIDVDKGENYCFSVQAVIPSRAVNRKSTDSPVECMGQEKGEFRE
# modifications: extracellular domain
# B2: 1DAN TU203A (protein, UniProt P13726 33-251, looked up, variant T203A)
# extracellular domain: SGTTNTVAAYNLTWKSTNFKTILEWEPKPVNQVYTVQISTKSGDWKSKCFYTTDTECDLTDEIVKDVKQTYLARVFSYPAGNVESTGSAGEPLYENSPEFTPYLETNLGQPTIQSFEQVGTKVNVTVEDERTLVRRNNTFLSLRDVFGKDLIYTLYYWKSSSSGKKTAKTNTNEFLIDVDKGENYCFSVQAVIPSRTVNRKSADSPVECMGQEKGEFRE
# modifications: extracellular domain
# B3: 1DAN ET24A (protein, UniProt P13726 33-251, looked up, variant E24A)
# extracellular domain: SGTTNTVAAYNLTWKSTNFKTILAWEPKPVNQVYTVQISTKSGDWKSKCFYTTDTECDLTDEIVKDVKQTYLARVFSYPAGNVESTGSAGEPLYENSPEFTPYLETNLGQPTIQSFEQVGTKVNVTVEDERTLVRRNNTFLSLRDVFGKDLIYTLYYWKSSSSGKKTAKTNTNEFLIDVDKGENYCFSVQAVIPSRTVNRKSTDSPVECMGQEKGEFRE
# modifications: extracellular domain
# B4: 1DAN KT15A (protein, UniProt P13726 33-251, looked up, variant K15A)
# extracellular domain: SGTTNTVAAYNLTWASTNFKTILEWEPKPVNQVYTVQISTKSGDWKSKCFYTTDTECDLTDEIVKDVKQTYLARVFSYPAGNVESTGSAGEPLYENSPEFTPYLETNLGQPTIQSFEQVGTKVNVTVEDERTLVRRNNTFLSLRDVFGKDLIYTLYYWKSSSSGKKTAKTNTNEFLIDVDKGENYCFSVQAVIPSRTVNRKSTDSPVECMGQEKGEFRE
# modifications: extracellular domain
# B5: 1DAN KT41A (protein, UniProt P13726 33-251, looked up, variant K41A)
# extracellular domain: SGTTNTVAAYNLTWKSTNFKTILEWEPKPVNQVYTVQISTASGDWKSKCFYTTDTECDLTDEIVKDVKQTYLARVFSYPAGNVESTGSAGEPLYENSPEFTPYLETNLGQPTIQSFEQVGTKVNVTVEDERTLVRRNNTFLSLRDVFGKDLIYTLYYWKSSSSGKKTAKTNTNEFLIDVDKGENYCFSVQAVIPSRTVNRKSTDSPVECMGQEKGEFRE
# modifications: extracellular domain
# B6: 1DAN KT20A (protein, UniProt P13726 33-251, looked up, variant K20A)
# extracellular domain: SGTTNTVAAYNLTWKSTNFATILEWEPKPVNQVYTVQISTKSGDWKSKCFYTTDTECDLTDEIVKDVKQTYLARVFSYPAGNVESTGSAGEPLYENSPEFTPYLETNLGQPTIQSFEQVGTKVNVTVEDERTLVRRNNTFLSLRDVFGKDLIYTLYYWKSSSSGKKTAKTNTNEFLIDVDKGENYCFSVQAVIPSRTVNRKSTDSPVECMGQEKGEFRE
# modifications: extracellular domain
# B7: 1DAN ET26A (protein, UniProt P13726 33-251, looked up, variant E26A)
# extracellular domain: SGTTNTVAAYNLTWKSTNFKTILEWAPKPVNQVYTVQISTKSGDWKSKCFYTTDTECDLTDEIVKDVKQTYLARVFSYPAGNVESTGSAGEPLYENSPEFTPYLETNLGQPTIQSFEQVGTKVNVTVEDERTLVRRNNTFLSLRDVFGKDLIYTLYYWKSSSSGKKTAKTNTNEFLIDVDKGENYCFSVQAVIPSRTVNRKSTDSPVECMGQEKGEFRE
# modifications: extracellular domain
# B8: 1DAN KT28A (protein, UniProt P13726 33-251, looked up, variant K28A)
# extracellular domain: SGTTNTVAAYNLTWKSTNFKTILEWEPAPVNQVYTVQISTKSGDWKSKCFYTTDTECDLTDEIVKDVKQTYLARVFSYPAGNVESTGSAGEPLYENSPEFTPYLETNLGQPTIQSFEQVGTKVNVTVEDERTLVRRNNTFLSLRDVFGKDLIYTLYYWKSSSSGKKTAKTNTNEFLIDVDKGENYCFSVQAVIPSRTVNRKSTDSPVECMGQEKGEFRE
# modifications: extracellular domain
# B9: 1AHW DC178A (protein, UniProt P13726 33-251, looked up, variant D178A)
# extracellular domain: SGTTNTVAAYNLTWKSTNFKTILEWEPKPVNQVYTVQISTKSGDWKSKCFYTTDTECDLTDEIVKDVKQTYLARVFSYPAGNVESTGSAGEPLYENSPEFTPYLETNLGQPTIQSFEQVGTKVNVTVEDERTLVRRNNTFLSLRDVFGKDLIYTLYYWKSSSSGKKTAKTNTNEFLIAVDKGENYCFSVQAVIPSRTVNRKSTDSPVECMGQEKGEFRE
# modifications: extracellular domain
# B10: 1DAN DT44A (protein, UniProt P13726 33-251, looked up, variant D44A)
# extracellular domain: SGTTNTVAAYNLTWKSTNFKTILEWEPKPVNQVYTVQISTKSGAWKSKCFYTTDTECDLTDEIVKDVKQTYLARVFSYPAGNVESTGSAGEPLYENSPEFTPYLETNLGQPTIQSFEQVGTKVNVTVEDERTLVRRNNTFLSLRDVFGKDLIYTLYYWKSSSSGKKTAKTNTNEFLIDVDKGENYCFSVQAVIPSRTVNRKSTDSPVECMGQEKGEFRE
# modifications: extracellular domain
# B11: 1EMV NA24A (protein, UniProt P13479 1-86, looked up, variant N24A)
# Colicin-E9 immunity protein: MELKHSISDYTEAEFLQLVTTICAADTSSEEELVKLVTHFEEMTEHPSGSDLIYYPKEGDDDSPSGIVNTVKQWRAANGKSGFKQG
# B12: 1EMV SA48A (protein, UniProt P13479 1-86, looked up, variant S48A)
# Colicin-E9 immunity protein: MELKHSISDYTEAEFLQLVTTICNADTSSEEELVKLVTHFEEMTEHPAGSDLIYYPKEGDDDSPSGIVNTVKQWRAANGKSGFKQG
# B13: 1EMV SA29A (protein, UniProt P13479 1-86, looked up, variant S29A)
# Colicin-E9 immunity protein: MELKHSISDYTEAEFLQLVTTICNADTSAEEELVKLVTHFEEMTEHPSGSDLIYYPKEGDDDSPSGIVNTVKQWRAANGKSGFKQG
# B14: 1EMV NA69A (protein, UniProt P13479 1-86, looked up, variant N69A)
# Colicin-E9 immunity protein: MELKHSISDYTEAEFLQLVTTICNADTSSEEELVKLVTHFEEMTEHPSGSDLIYYPKEGDDDSPSGIVATVKQWRAANGKSGFKQG
# B15: 1EMV SA50A (protein, UniProt P13479 1-86, looked up, variant S50A)
# Colicin-E9 immunity protein: MELKHSISDYTEAEFLQLVTTICNADTSSEEELVKLVTHFEEMTEHPSGADLIYYPKEGDDDSPSGIVNTVKQWRAANGKSGFKQG
# B16: 1EMV TA44A (protein, UniProt P13479 1-86, looked up, variant T44A)
# Colicin-E9 immunity protein: MELKHSISDYTEAEFLQLVTTICNADTSSEEELVKLVTHFEEMAEHPSGSDLIYYPKEGDDDSPSGIVNTVKQWRAANGKSGFKQG
# B17: 1EMV SA63A (protein, UniProt P13479 1-86, looked up, variant S63A)
# Colicin-E9 immunity protein: MELKHSISDYTEAEFLQLVTTICNADTSSEEELVKLVTHFEEMTEHPSGSDLIYYPKEGDDDAPSGIVNTVKQWRAANGKSGFKQG
# B18: 2WPT SA50A (protein, UniProt P04482 1-86, looked up, variant S50A)
# Colicin-E2 immunity protein: MELKHSISDYTEAEFLEFVKKICRAEGATEEDDNKLVREFERLTEHPDGADLIYYPRDDREDSPEGIVKEIKEWRAANGKSGFKQG
# B19: 1A4Y RA457A (protein, UniProt P13489 2-461, looked up, variant R457A)
# Ribonuclease inhibitor: SLDIQSLDIQCEELSDARWAELLPLLQQCQVVRLDDCGLTEARCKDISSALRVNPALAELNLRSNELGDVGVHCVLQGLQTPSCKIQKLSLQNCCLTGAGCGVLSSTLRTLPTLQELHLSDNLLGDAGLQLLCEGLLDPQCRLEKLQLEYCSLSAASCEPLASVLRAKPDFKELTVSNNDINEAGVRVLCQGLKDSPCQLEALKLESCGVTSDNCRDLCGIVASKASLRELALGSNKLGDVGMAELCPGLLHPSSRLRTLWIWECGITAKGCGDLCRVLRAKESLKELSLAGNELGDEGARLLCETLLEPGCQLESLWVKSCSFTAACCSHFSSVLAQNRFLLELQISNNRLEDAGVRELCQGLGQPGSVLRVLWLADCDVSDSSCSSLAATLLANHSLRELDLSNNCLGDAGILQLVESVRQPGCLLEQLVLYDIYWSEEMEDRLQALEKDKPSLAVIS
# Key:
# [1] = tested on: PPIs of the SKEMPI data set (by PDBID); settings: single mutation to alanine, ref SKEMPI, cited from earlier work; for sk_ddG_kJ (SKEMPI experimental ΔΔG): residue group SQNT; for sk_ddG_kJ: SKEMPI experimental ΔΔG of binding, complex by PDBID
# [2] = tested on: PPIs of the SKEMPI data set (by PDBID); assay: SKEMPI experimental ΔΔG, single mutations to alanine; format: binding; settings: for sk_class: class of the SKEMPI experimental ΔΔG
Molecule,sk_ddG_kJ (SKEMPI experimental ΔΔG) ([1]; complex given by PDBID) [kJ],sk_class [2],sk_ddG_kJ [1] [kJ],sk_class ([2]; ref SKEMPI),other results
B1,0.46,Neutral (neutral (little effect) 4.184 kJ/mol < ΔΔG > −4.184 kJ/mol),–,–,–
B2,0.59,Neutral (neutral (little effect) 4.184 kJ/mol < ΔΔG > −4.184 kJ/mol),–,–,–
B3,–,–,2.76,Neutral (neutral (little effect) 4.184 kJ/mol < ΔΔG > −4.184 kJ/mol),–
B4,–,–,-1.63,Neutral (neutral (little effect) 4.184 kJ/mol < ΔΔG > −4.184 kJ/mol),–
B5,–,–,1.38,Neutral (neutral (little effect) 4.184 kJ/mol < ΔΔG > −4.184 kJ/mol),–
B6,–,–,10.21,Positive (positive (a hot residue) ΔΔG ≥ 4.184 kJ/mol),–
B7,–,–,0.46,Neutral (neutral (little effect) 4.184 kJ/mol < ΔΔG > −4.184 kJ/mol),–
B8,–,–,0.50,Neutral (neutral (little effect) 4.184 kJ/mol < ΔΔG > −4.184 kJ/mol),–
B9,–,–,-2.01,Neutral (neutral (little effect) 4.184 kJ/mol < ΔΔG > −4.184 kJ/mol),–
B10,–,–,10.00,Positive (positive (a hot residue) ΔΔG ≥ 4.184 kJ/mol),–
B11,0.59,Neutral (neutral (little effect) 4.184 kJ/mol < ΔΔG > −4.184 kJ/mol),–,–,–
B12,0.04,Neutral (neutral (little effect) 4.184 kJ/mol < ΔΔG > −4.184 kJ/mol),–,–,–
B13,4.02,Neutral (neutral (little effect) 4.184 kJ/mol < ΔΔG > −4.184 kJ/mol),–,–,–
B14,1.17,Neutral (neutral (little effect) 4.184 kJ/mol < ΔΔG > −4.184 kJ/mol),–,–,–
B15,9.16,Positive (positive (a hot residue) ΔΔG ≥ 4.184 kJ/mol),–,–,–
B16,1.26,Neutral (neutral (little effect) 4.184 kJ/mol < ΔΔG > −4.184 kJ/mol),–,–,–
B17,3.64,Neutral (neutral (little effect) 4.184 kJ/mol < ΔΔG > −4.184 kJ/mol),–,–,–
B18,–,–,–,Positive (positive (a hot residue) ΔΔG ≥ 4.184 kJ/mol),"sk_ddG_kJ (SKEMPI experimental ΔΔG, mutation to alanine) ([1]; complex given by PDBID, chain and residue by mut_pdb): 10.04 kJ"
B19,–,–,–,–,"sk_ddG_kJ (SKEMPI experimental ΔΔG, mutation to alanine) ([1]; PPI given by PDBID, sheet sortedByGroup, r_group DERKH): -0.92 kJ; sk_class (class of the SKEMPI experimental ΔΔG) ([2]; class by ΔΔG threshold 4.184 kJ/mol, ref SKEMPI): Neutral (neutral (little effect) 4.184 kJ/mol < ΔΔG > −4.184 kJ/mol)"
